Laboratory results published in patent US9802997B2, “Peptides and combination of peptides for use in immunotherapy against various tumors” (immatics biotechnologies GmbH, priority 2015, dated 2017).

Target: HLA-A*02:01 (Homo sapiens, UniProt P04439, D140Y/D185E/D98H/E176V/E277Q/G131W/G231S/I119V/I121R/I166T/I218V/L300P/L318F/N151K/N90K/P208A/P217A/Q86G/Q94H/R138H/R169H/T345S)
Assay: MHC binding assay (UV-ligand exchange, beta2m ELISA)
Conditions: binding to HLA-A*02:01, β2m ELISA
Text: Candidate peptides for T cell based therapies according to the present invention were further tested for their MHC binding capacity (affinity). The individual peptide-MHC complexes were produced by UV-ligand exchange, where a UV-sensitive peptide is cleaved upon UV-irradiation, and exchanged with the peptide of interest as analyzed. Only peptide candidates that can effectively bind and stabilize the peptide-receptive MHC molecules prevent dissociation of the MHC complexes. To determine the yield of the exchange reaction, an ELISA was performed based on the detection of the light chain (β2m) of stabilized MHC complexes. The assay was performed as generally described in Rodenko et al. (Rodenko et al., 2006).
96 well MAXISorp plates (NUNC) were coated over night with 2 ug/ml streptavidin in PBS at room temperature, washed 4× and blocked for 1 h at 37° C. in 2% BSA containing blocking buffer. Refolded HLA-A*02:01/MLA-001 monomers served as standards, covering the range of 15-500 ng/ml. Peptide-MHC monomers of the UV-exchange reaction were diluted 100 fold in blocking buffer. Samples were incubated for 1 h at 37° C., washed four times, incubated with 2 ug/ml HRP conjugated anti-β2m for 1 h at 37° C., washed again and detected with TMB solution that is stopped with […]. Absorption was measured at 450 nm. Candidate peptides that show a high exchange yield (preferably higher than 50%, most preferred higher than 75%) are generally preferred for a generation and production of antibodies or fragments thereof, and/or T cell receptors or fragments thereof, as they show sufficient avidity to the MHC molecules and prevent dissociation of the MHC complexes.

Substance | Peptide exchange (MHC class I binding score, peptide exchange yield)
235 (SLLNQPKAV; listed as Homo sapiens) [compound 235] | ++ (≧20% = ++)
85 (KLLDKPEQFL; listed as Homo sapiens) [compound 85] | ++ (≧20% = ++)
125 (AALEVLAEV; listed as Homo sapiens) [compound 125] | +++ (≧50 = +++)
83 (GLLENSPHL; listed as Homo sapiens) [compound 83] | ++ (≧20% = ++)
1 (KLQEKIQEL; listed as Homo sapiens) [compound 1] | ++++ (≧75% = ++++)
221 (IMLNSVEEI; listed as Homo sapiens) [compound 221] | ++ (≧20% = ++)
57 (TLYPGRFDYV; listed as Homo sapiens) [compound 57] | ++ (≧20% = ++)
82 (ILAEEPIYIRV; listed as Homo sapiens) [compound 82] | +++ (≧50 = +++)
90 (AILNVDEKNQV; listed as Homo sapiens) [compound 90] | ++ (≧20% = ++)
222 (LLTGVFAQL; listed as Homo sapiens) [compound 222] | ++ (≧20% = ++)
134 (SLYKSFLQL; listed as Homo sapiens) [compound 134] | ++ (≧20% = ++)
48 (KISDFGLATV; listed as Homo sapiens) [compound 48] | +++ (≧50 = +++)
158 (YLDPLWHQL; listed as Homo sapiens) [compound 158] | +++ (≧50 = +++)
70 (GLTEKTVLV; listed as Homo sapiens) [compound 70] | ++ (≧20% = ++)
219 (GVVPTIQKV; listed as Homo sapiens) [compound 219] | ++ (≧20% = ++)
68 (QLMNLIRSV; listed as Homo sapiens) [compound 68] | +++ (≧50 = +++)
88 (LLLPLELSLA; listed as Homo sapiens) [compound 88] | +++ (≧50 = +++)
10 (QLIEKNWLL; listed as Homo sapiens) [compound 10] | +++ (≧50 = +++)
113 (FLFLKEVKV; listed as Homo sapiens) [compound 113] | ++ (≧20% = ++)
98 (FVQEKIPEL; listed as Homo sapiens) [compound 98] | +++ (≧50 = +++)
237 (ALLEQTGDMSL; listed as Homo sapiens) [compound 237] | +++ (≧50 = +++)

Substance | Peptide exchange (MHC class I binding score, peptide exchange yield)
250 (LMQDSRLYL; listed as Homo sapiens) [compound 250] | +++ (≧50 = +++)
139 (IILENIQSL; listed as Homo sapiens) [compound 139] | +++ (≧50 = +++)
63 (KLLPMVIQL; listed as Homo sapiens) [compound 63] | +++ (≧50 = +++)
175 (SLLDLVQSL; listed as Homo sapiens) [compound 175] | +++ (≧50 = +++)
159 (QLGPVPVTI; listed as Homo sapiens) [compound 159] | +++ (≧50 = +++)
58 (HLLGEGAFAQV; listed as Homo sapiens) [compound 58] | +++ (≧50 = +++)
268 (SLDKDIVAL; listed as Homo sapiens) [compound 268] | ++ (≧20% = ++)
195 (VIIQNLPAL; listed as Homo sapiens) [compound 195] | +++ (≧50 = +++)
261 (GLAALAVHL; listed as Homo sapiens) [compound 261] | +++ (≧50 = +++)
91 (LLPSIFLMV; listed as Homo sapiens) [compound 91] | ++ (≧20% = ++)
132 (ALLNNVIEV; listed as Homo sapiens) [compound 132] | +++ (≧50 = +++)
245 (ALLEEEEGV; listed as Homo sapiens) [compound 245] | ++ (≧20% = ++)
248 (VLMQDSRLYL; listed as Homo sapiens) [compound 248] | +++ (≧50 = +++)
69 (LKVLKADVVL; listed as Homo sapiens) [compound 69] | ++ (≧20% = ++)
6 (FLNAIETAL; listed as Homo sapiens) [compound 6] | ++++ (≧75% = ++++)
108 (FIANLPPELKA; listed as Homo sapiens) [compound 108] | +++ (≧50 = +++)
20 (ALVEKGEFAL; listed as Homo sapiens) [compound 20] | ++ (≧20% = ++)
230 (KLLNMIFSI; listed as Homo sapiens) [compound 230] | +++ (≧50 = +++)
266 (FLLDKPQDL; listed as Homo sapiens) [compound 266] | ++ (≧20% = ++)
259 (GPGIFPPPPPQP; listed as Homo sapiens) [compound 259] | + (≧10% = +)
218 (SLTGANITV; listed as Homo sapiens) [compound 218] | +++ (≧50 = +++)

Substance | Peptide exchange (MHC class I binding score, peptide exchange yield)
79 (TVLEEIGNRV; listed as Homo sapiens) [compound 79] | ++ (≧20% = ++)
74 (GLAFLPASV; listed as Homo sapiens) [compound 74] | ++ (≧20% = ++)
199 (SVADLAHVL; listed as Homo sapiens) [compound 199] | ++ (≧20% = ++)
67 (FLIENLLAA; listed as Homo sapiens) [compound 67] | +++ (≧50 = +++)
40 (KIWEELSVLEV; listed as Homo sapiens) [compound 40] | +++ (≧50 = +++)
55 (HLFDKIIKI; listed as Homo sapiens) [compound 55] | +++ (≧50 = +++)
131 (SLYPHFTLL; listed as Homo sapiens) [compound 131] | +++ (≧50 = +++)
25 (LLWGHPRVALA; listed as Homo sapiens) [compound 25] | +++ (≧50 = +++)
119 (SLIEESEEL; listed as Homo sapiens) [compound 119] | ++ (≧20% = ++)
52 (TIGIPFPNV; listed as Homo sapiens) [compound 52] | ++ (≧20% = ++)
153 (KLVELEHTL; listed as Homo sapiens) [compound 153] | +++ (≧50 = +++)
147 (GLLSALENV; listed as Homo sapiens) [compound 147] | +++ (≧50 = +++)
136 (LLWDAPAKC; listed as Homo sapiens) [compound 136] | +++ (≧50 = +++)
285 (MLLDTVQKV; listed as Homo sapiens) [compound 285] | +++ (≧50 = +++)
208 (HLNNDRNPL; listed as Homo sapiens) [compound 208] | ++ (≧20% = ++)
62 (SLVENIHVL; listed as Homo sapiens) [compound 62] | +++ (≧50 = +++)
284 (KLMDPGSLPPL; listed as Homo sapiens) [compound 284] | ++ (≧20% = ++)
130 (QLYGSAITL; listed as Homo sapiens) [compound 130] | +++ (≧50 = +++)
224 (LLFDWSGTGRADA; listed as Homo sapiens) [compound 224] | +++ (≧50 = +++)
161 (NLLDENVCL; listed as Homo sapiens) [compound 161] | ++++ (≧75% = ++++)
